From patent US5739291, “Glutamate receptor antibodies” (The Salk Institute For Biological Studies, dated 1998)

Biological target: glutamate receptor subunit GluR2 (rat)
Assay: cell-based or functional assay

Sequence of glutamate receptor subunit GluR2 (rat) (chain, as listed by the source limits assumed): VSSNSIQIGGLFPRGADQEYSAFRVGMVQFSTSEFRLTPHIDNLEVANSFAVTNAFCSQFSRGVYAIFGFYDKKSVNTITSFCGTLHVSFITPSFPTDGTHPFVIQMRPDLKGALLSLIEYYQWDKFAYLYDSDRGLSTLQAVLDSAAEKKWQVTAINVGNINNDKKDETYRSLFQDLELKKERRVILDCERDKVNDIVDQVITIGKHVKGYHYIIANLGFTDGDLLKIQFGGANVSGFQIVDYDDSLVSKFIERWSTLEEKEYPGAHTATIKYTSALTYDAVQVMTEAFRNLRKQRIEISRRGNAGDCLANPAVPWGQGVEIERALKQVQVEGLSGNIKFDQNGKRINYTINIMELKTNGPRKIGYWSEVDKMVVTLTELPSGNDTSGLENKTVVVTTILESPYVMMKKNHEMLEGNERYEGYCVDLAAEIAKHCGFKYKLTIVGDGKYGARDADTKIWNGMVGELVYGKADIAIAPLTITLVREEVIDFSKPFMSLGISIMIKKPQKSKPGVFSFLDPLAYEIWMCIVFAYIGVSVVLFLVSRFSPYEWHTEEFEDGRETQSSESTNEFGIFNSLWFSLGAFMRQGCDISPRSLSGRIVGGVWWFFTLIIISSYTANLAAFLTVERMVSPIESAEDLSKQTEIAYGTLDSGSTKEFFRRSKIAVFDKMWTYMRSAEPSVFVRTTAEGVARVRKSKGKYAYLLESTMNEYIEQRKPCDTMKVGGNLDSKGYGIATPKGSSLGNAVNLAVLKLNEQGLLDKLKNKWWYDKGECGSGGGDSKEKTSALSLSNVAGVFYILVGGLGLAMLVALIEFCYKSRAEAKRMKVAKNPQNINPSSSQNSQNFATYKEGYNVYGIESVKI

KA-evoked currents in Xenopus oocytes on co-expression, against the summed responses of singly injected oocytes: ~4 fold
B1: glutamate receptor subunit GluR1 (receptor)
chain: ANFPNNIQIGGLFPNQQSQEHAAFRFALSQLTEPPKLLPQIDIVNISDTFEMTYRFCSQFSKGVYAIFGFYERRTVNMLTSFCGALHVCFITPSFPVDTSNQFVLQLRPELQEALISIIDHYKWQTFVYIYDADRGLSVLQRVLDTAAEKNWQVTAVNILTTTEEGYRMLFQDLEKKKERLVVVDCESERLNAILGQIVKLEKNGIGYHYILANLGFMDIDLNKFKESGRNVTGFQLVNYTDTIPARIMQQWRTSDSRDHTRVDWKRPKYTSALTYDGVKVMAEAFQSLRRQRIDISRRGNAGDCLANPAVPWGQGIDIQRALQQVRFEGLTGNVQFNEKGRRTNYTLHVIEMKHDGIRKIGYWNEDDKFVPAATDAQAGGDNSSVQNRTYIVTTILEDPYVMLKKNANQFEGNDRYEGYCVELAAEIAKHVGYSYRLEIVSDGKYGARDPDTKAWNGMVGELVYGRADVAVAPLTITLVREEVIDFSKPFMSLGISIMIKKPQKSKPGVFSFLDPLAYEIWMCIVFAYIGVSVVLFLVSRFSPYEWHSEEFEEGRDQTTSDQSNEFGIFNSLWFSLGAFMQQGCDISPRSLSGRIVGGVWWFFTLIIISSYTANLAAFLTVERMVSPIESAEDLAKQTEIAYGTLEAGSTKEFFRRSKIAVFEKMWTYMKSAEPSVFVRTTEEGMIRVRKSKGKYAYLLESTMNEYIEQRKPCDTMKVGGNLDSKGYGIATPKGSALRNPVNLAVLKLNEQGLLDKLKNKWWYDKGECGTGGGDSKDKTSALSLSNVAGVFYILIGGLGLAMLVALIEFCYKSRSESKRMKGFCLIPQQSINEAIRTSTLPRNSGAGASGGGGSGENGRVVSQDFPKSMQSIPCMSHSSGMPLGATGL
